Results published in patent US20130089872A1 (LIVTECH, published 2013).
Numbering of substitutions follows the chain as printed. Blank lines part the entries; values can stand above or below the binder they belong to.

Key:
[1] = molecular target: T1, human TROP-1/EpCAM protein (human, UniProt P16422 24-314); assay: FACS on CHO-K1 cells transiently expressing human EpCAM/TROP-1
T1 construct: whole, on cells; vector adds a C-terminal myc/His tag; also called human EpCAM/TROP-1; hEpCAM
T1 sequence (looked up): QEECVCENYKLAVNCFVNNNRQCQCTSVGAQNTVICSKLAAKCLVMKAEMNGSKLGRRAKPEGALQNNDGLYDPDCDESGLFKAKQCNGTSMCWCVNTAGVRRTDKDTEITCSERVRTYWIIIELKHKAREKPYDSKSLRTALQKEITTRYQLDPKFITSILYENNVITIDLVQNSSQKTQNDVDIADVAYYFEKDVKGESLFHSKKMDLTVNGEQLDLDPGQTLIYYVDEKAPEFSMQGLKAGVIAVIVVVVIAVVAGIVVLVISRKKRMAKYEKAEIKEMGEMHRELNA
Excerpt: (§1) Specifically, each of an expression vector (mouse TROP-2-pcDNA3.1(+), furnished by the Institute of Molecular and Cellular Biosciences, the University of Tokyo) comprising the full-length cDNA of a mouse TROP-2 gene (GenBank accession No. NM_{—}020047, Y08830), and an expression vector (pcDNA3.1-hEpCAM-myc/His) comprising the full-length cDNA of a human TROP-1/EpCAM gene (GenBank accession No. NM_{—}002354), was transiently introduced into CHO-K1 cells, using Lipofectamine2000 reagent (Invitrogen). Thereafter, 24 to 48 hours later, the cells were removed from a culture dish by treating them with trypsin, and a cell suspension was then prepared. The thus prepared cell suspension was successively reacted with the produced anti-hTROP-2 monoclonal antibody (0.1 μg) and with PE-labeled anti-mouse IgG, and it was then analyzed by FACSCalibur.

[2] = molecular target: T2, hmTROP-2-C chimeric protein (human; mouse, UniProt Q8BGV3 140-317); assay: FACS on HEK293 cells constantly expressing hmTROP-2-C
T2 construct: range 140-C-terminus; constitutively expressed on HEK293 cells; signal peptide 1-26 of hTROP-2 left out; also called human/mouse chimeric TROP-2-C; not shown: C-terminal myc/His tag from the vector
T2 sequence: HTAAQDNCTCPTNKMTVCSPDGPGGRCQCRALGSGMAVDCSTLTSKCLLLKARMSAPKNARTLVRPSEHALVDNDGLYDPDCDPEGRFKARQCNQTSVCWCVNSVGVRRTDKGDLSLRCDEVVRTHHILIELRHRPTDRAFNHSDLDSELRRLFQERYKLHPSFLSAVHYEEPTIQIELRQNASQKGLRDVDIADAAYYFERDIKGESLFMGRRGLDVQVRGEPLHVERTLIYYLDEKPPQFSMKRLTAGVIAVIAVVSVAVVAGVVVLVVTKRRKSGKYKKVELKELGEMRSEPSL

mouse TROP-2 protein = molecular target: T3, mouse TROP-2 protein (mouse, UniProt Q8BGV3 25-317); assay: FACS on CHO-K1 cells transiently expressing mouse TROP-2
T3 construct: whole, on cells
T3 sequence (looked up): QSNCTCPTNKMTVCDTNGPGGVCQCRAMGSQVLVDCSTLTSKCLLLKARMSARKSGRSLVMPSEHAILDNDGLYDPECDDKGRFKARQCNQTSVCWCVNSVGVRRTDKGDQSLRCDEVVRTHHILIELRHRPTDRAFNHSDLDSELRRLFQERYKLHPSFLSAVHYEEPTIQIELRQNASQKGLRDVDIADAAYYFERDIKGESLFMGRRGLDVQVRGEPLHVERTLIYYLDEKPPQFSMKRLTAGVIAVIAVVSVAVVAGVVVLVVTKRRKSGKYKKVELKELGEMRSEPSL
Excerpt: as §1

[3] = molecular target: T4, recombinant protein of the extracellular region of hTROP-2 (human, UniProt P09758 27-263); assay: equilibrium competition ELISA (Djavadi-Ohaniance method), recombinant hTROP-2
T4 construct: made with baculovirus, purified on Ni Sepharose; also called purified recombinant hTROP-2 protein; hTROP-2 EC; not shown: C-terminal myc/His tag from the pcDNA4/myc-His A vector
T4 sequence: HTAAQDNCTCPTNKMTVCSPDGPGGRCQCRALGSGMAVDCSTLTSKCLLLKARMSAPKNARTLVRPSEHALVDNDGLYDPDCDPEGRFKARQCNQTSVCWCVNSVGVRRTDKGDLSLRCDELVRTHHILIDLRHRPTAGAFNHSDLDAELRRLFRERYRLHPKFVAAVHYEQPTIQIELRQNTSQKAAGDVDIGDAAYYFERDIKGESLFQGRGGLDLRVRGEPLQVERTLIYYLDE
Method: The antigen binding affinity (Kd value) of the generated anti-hTROP-2 monoclonal antibody was calculated by a method using ELISA (Djavadi-Ohaniance L. et al (1996), In Antibody Engineering, Chapter 4, pp. 77-97. IRL Press, Oxford).
Specifically, the purified recombinant hTROP-2 protein (0.1 μg/mL) was added to a 96-well culture plate (Corning) so that the antigen was solid-phased (at room temperature for 1 hour, or at 4° C. overnight). Subsequently, the resultant was washed with PBS three times, and 2% skim milk (PBS solution) was then added thereto to block it (at room temperature for 1 hour). The resultant was washed with PBS twice. […] The reaction product was washed with PBS three times, and it was then reacted with HRP-labeled anti-mouse IgG (final concentration: 1 μg/mL) (GE Healthcare Biosciences) diluted with a blocking solution (at room temperature for 1 hour). Subsequently, the reaction product was washed with a 0.1% Tween20-PBS solution three times, and a TMB (3,3′,5,5′-tetramethylbenzidine: SIGMA) substrate solution was then added to the resultant to carry out a color reaction. Then, 1 M sulfuric acid was added to the reaction product to terminate the reaction. Using Microplate reader Model 550 (BIO RAD), absorbance was measured.

[4] = molecular target: T5, hmTROP-2-A chimeric protein (human; mouse, UniProt Q8BGV3 64-317); assay: FACS on HEK293 cells transiently expressing hmTROP-2-A
T5 construct: range 64-C-terminus; transiently expressed on HEK293 cells; also called human/mouse TROP-2-A; not shown: C-terminal myc/His tag from the vector
T5 sequence: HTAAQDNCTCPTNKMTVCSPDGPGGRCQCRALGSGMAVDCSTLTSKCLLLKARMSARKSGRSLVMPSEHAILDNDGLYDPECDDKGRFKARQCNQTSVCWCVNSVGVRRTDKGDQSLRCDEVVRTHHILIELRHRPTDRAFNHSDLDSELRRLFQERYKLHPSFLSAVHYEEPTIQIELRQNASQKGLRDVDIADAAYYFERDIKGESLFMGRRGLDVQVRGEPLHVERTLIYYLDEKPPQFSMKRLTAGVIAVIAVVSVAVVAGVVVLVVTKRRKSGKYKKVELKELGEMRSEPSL

[5] = molecular target: T6, human TROP-2 (hTROP-2) protein (human, UniProt P09758 27-323); assay: FACS on BxPC-3 cells (endogenous hTROP-2), 0.1 ug antibody
T6 construct: also called Tacstd2; GA733-1
T6 sequence: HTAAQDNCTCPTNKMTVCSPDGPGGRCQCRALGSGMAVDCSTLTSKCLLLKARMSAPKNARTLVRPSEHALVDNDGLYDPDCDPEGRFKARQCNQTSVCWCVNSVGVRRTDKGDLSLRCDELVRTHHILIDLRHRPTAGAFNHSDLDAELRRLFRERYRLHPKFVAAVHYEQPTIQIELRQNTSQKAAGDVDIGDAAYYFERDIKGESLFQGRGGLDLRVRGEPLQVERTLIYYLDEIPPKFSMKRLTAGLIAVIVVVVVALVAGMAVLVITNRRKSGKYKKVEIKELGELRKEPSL
Method: (§2) Cancer cells were removed from a culture dish by a trypsin treatment, and a cell suspension was then prepared (cell density: 2×10⁶ cells/mL). An anti-hTROP-2 monoclonal antibody (0.1 μg) was added to 100 μL of the cell suspension, and they were then reacted at 4° C. for 20 minutes. The reaction solution was washed with PBS, and it was then reacted with PE-labeled anti-mouse IgG (BD Biosciences Pharmingen) (0.1 μg) (at 4° C. for 30 minutes). Thereafter, the resultant was analyzed by FACSCalibur (Becton, Dickinson and Company).

[6] = molecular target: T6, human TROP-2 (hTROP-2) protein; assay: FACS on PK-59 cells (endogenous hTROP-2), 0.1 ug antibody
Method: as §2

Table 9 peptide No. 14 = assay: PEPSCAN/CLIPS peptide ELISA, antibody 1 ug/mL
Table 9 peptide No. 26 = molecular target: T7, Table 9 peptide No. 26; assay: PEPSCAN/CLIPS peptide ELISA, antibody 1 ug/mL
T7 construct: CLIPS format (inferred); native Cys replaced by Ala as printed
T7 peptide: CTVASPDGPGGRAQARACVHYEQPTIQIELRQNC
Method: 5034 types of the synthesized peptides were covalently bound to PEPSCAN cards (455 peptides/card), and the binding of the synthesized peptides to antibodies was then analyzed by the ELISA method. […] After washing, the resultant was allowed to react with a 1000-fold diluted peroxidase-secondary antibody complex at 25° C. for 1 hour. After washing, a substrate solution (a solution containing 2,2′-azino-di-3-ethylbenzthiazoline sulfonate (ABTS) and 2 μL of 3% hydrogen peroxide solution) was added to the reaction solution, followed by a chromogenic reaction for 1 hour. The binding activity of the antibodies was quantified by photographing with a CCD camera and then performing an image analysis.

Table 7 peptide No. 19 = assay: PEPSCAN/CLIPS peptide ELISA, antibody 1 ug/mL
Table 7 peptide No. 16 = assay: PEPSCAN/CLIPS peptide ELISA, antibody 1 ug/mL

- binding result [1]: no binding (tested: 0.1 ug)
- binding result [2]: no binding
- binding result (mouse TROP-2 protein): no binding (tested: 0.1 ug)
- Kd [3]: 4.3 pM
B1: anti-hTROP-2 monoclonal antibody clone T6-16 (antibody, V domains shown)
VH: EVQLQQSGPELVKPGASVKISCKASGYTFTDYNMHWVKQSHGKNLEWIGYIYPYNGGTGYNQRFKSRATMTVDKSSSTAYMELRSLTSDDSAVYYCAREDYGSSPSYAMDYWGQGTSVIVSS
VL: DVVMTQTPLSLPVSLGDQASISCRSSQSLVHGNGNTYLHWYLQKPGQSPKLLIYKVSNRFSGVPDRFSGSGSGTDFTLKISRVEAEDLGVYFCSQTTHVPTFGSGTKLEIK
notes: mouse IgG2a purified from hybridoma ascites; also called 16-16; hybridoma FERM BP-11346

- binding result [1]: no binding (tested: 0.1 ug)
- binding result [4]: binds
- mean fluorescence intensity relative to secondary antibody only [5]: 121 times
- mean fluorescence intensity relative to secondary antibody only [6]: 122 times
- binding result [2]: binds
- binding (PEPSCAN ELISA signal) (Table 9 peptide No. 14): 1440
- binding result (mouse TROP-2 protein): no binding (tested: 0.1 ug)
- binding (PEPSCAN ELISA signal) (Table 9 peptide No. 26): 1220
- Kd [3]: 26.9 pM
B2: anti-hTROP-2 monoclonal antibody clone K5-116-2-1 (antibody, V domains shown)
VH: QVQLQQPGAELVRPGASVKLSCKASGYTFTSYWITWVKQRPGQGLEWIGNIYPSDSYTNYNQKFRDKATLTVDKSSSTAYMQLSSPTSEDSAVYYCSALFDYWGQGTTLTVSS
VL: DILLTQSPAILSVSPGERVSFSCRASQSIGTSIHWYQQRTNGSPRLLIKYASESISGIPSRFSGSGSGTDFILSINSVESEDIADYYCQQSNSWPFTFGSGTKLEIK
notes: mouse IgG; also called hybridoma FERM BP-11253

- binding result [1]: no binding (tested: 0.1 ug)
- binding result (mouse TROP-2 protein): no binding (tested: 0.1 ug)
B3: anti-hTROP-2 monoclonal antibody clone K5-107 (antibody, V domains shown)
VH: QVQLQQPGSELVRPGASVKLSCKASGYTFTSYWMHWVKQRHGQGLEWIGNIYPGGGYTNYDEKFKSKGTLTVDTSSSTAYMHLSSLTSEDSAVYYCTRSSVFDYWGQGTTLTVSS
VL: B2 VL with S28N, Y36F, I72T
notes: mouse IgG1 purified from hybridoma ascites; also called hybridoma FERM BP-11252

- binding result [1]: no binding (tested: 0.1 ug)
- binding result [4]: binds
- binding result [2]: binds
- binding result (mouse TROP-2 protein): no binding (tested: 0.1 ug)
- binding (PEPSCAN ELISA signal) (Table 7 peptide No. 19): 519
- binding (PEPSCAN ELISA signal) (Table 7 peptide No. 16): 538
- Kd [3]: 6.8 pM
B4: anti-hTROP-2 monoclonal antibody clone K5-70 (antibody, V domains shown)
VH: QVQLQQPGAELVRPGASVKLSCKASGYTFTIYWINWVKQRPGQGLEWIGNIYPSDSYTNYNQKFKDKATLTVDKSSSTAYMQLSSPTSEDSAVYYCTRTSMADYWGQGTTLTVSS
VL: B2 VL with I72T
notes: mouse IgG2a purified from hybridoma ascites; also called K-70; hybridoma FERM BP-11251
